Experimental data taken from publication PMC5627308, “Biochemical Function, Molecular Structure and Evolution of an Atypical Thioredoxin Reductase from Desulfovibrio vulgaris” (Frontiers in Microbiology, 2017).
Blank lines part the entries; values can stand above or below the compound they belong to.

How the values were obtained:
DvTR3 = biological target: T1, DvTR3 (Nitratidesulfovibrio vulgaris, UniProt Q72F38); assay: reduction of bound flavin, absorbance spectra, anaerobic; assay type: biochemical; conditions: 100 uM NAD(P)H, 50 mM Tris-HCl pH 7.5, 150 mM NaCl, 25 C
T1 construct: gene trxB-1; recombinant from E. coli, purified; FAD-containing

DvTR1 = biological target: T2, DvTR1 (Nitratidesulfovibrio vulgaris, UniProt Q72B02); assay: as above; assay type: biochemical; conditions: 100 uM NAD(P)H, 50 mM Tris-HCl pH 7.5, 150 mM NaCl, 25 C
T2 construct: gene trxB-2; recombinant from E. coli, purified; FAD-containing

[1] = biological target: DvTRi, isolated thioredoxin reductase from Desulfovibrio vulgaris Hildenborough (Desulfovibrio vulgaris Hildenborough); assay: crystal structure; oxidized DvTRi, 2.0 Å; crystals from 12% PEG 3350, 100 mM BisTris pH 6.0 (crystals 1) or 25% PEG 4000, 50 mM ammonium acetate, 100 mM sodium citrate pH 5.6 (crystals 2)
[2] = biological target: DvTrx1C30S (Desulfovibrio vulgaris Hildenborough); assay: cross-linking; mixed-disulfide trapping with single-cysteine variants: DTT-reduced DvTRi variant reacted with equimolar DvTrx1 variant activated as TNB mixed disulfide, 50 mM Na/K phosphate pH 8.8, 2 h at 37°C; non-reducing SDS-PAGE, western blot with antiserum against EcTrxA
[3] = biological target: DvTrx1C33S (Desulfovibrio vulgaris Hildenborough); assay: as above

T1 sequence (Q72F38 entry or part of it): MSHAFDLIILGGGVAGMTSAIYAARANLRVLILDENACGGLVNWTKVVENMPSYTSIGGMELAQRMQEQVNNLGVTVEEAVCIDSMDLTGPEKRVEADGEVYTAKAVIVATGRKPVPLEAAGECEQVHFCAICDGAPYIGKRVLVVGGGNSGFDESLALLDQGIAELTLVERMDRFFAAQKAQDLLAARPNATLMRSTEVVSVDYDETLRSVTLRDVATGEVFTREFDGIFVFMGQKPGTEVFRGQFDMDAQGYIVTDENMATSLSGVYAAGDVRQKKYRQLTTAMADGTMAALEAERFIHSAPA
T2 sequence (Q72B02 entry or part of it): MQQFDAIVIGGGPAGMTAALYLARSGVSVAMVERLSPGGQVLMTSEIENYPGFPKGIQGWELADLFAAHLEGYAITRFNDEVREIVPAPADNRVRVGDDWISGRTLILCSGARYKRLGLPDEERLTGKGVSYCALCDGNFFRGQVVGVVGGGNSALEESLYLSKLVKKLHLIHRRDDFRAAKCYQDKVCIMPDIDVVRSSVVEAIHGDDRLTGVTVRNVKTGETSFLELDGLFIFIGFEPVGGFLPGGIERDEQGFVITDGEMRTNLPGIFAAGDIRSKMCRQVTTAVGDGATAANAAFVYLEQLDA

stoichiometry N [2]: 2
Compound: DvTrx1C30S (natural protein)

stoichiometry N [3]: 2
Compound: DvTrx1C33S (natural protein)

Further lines, the compound ahead of its results:

Compound: NC(=O)C1=CN([C@@H]2O[C@H](COP(=O)(O)OP(=O)(O)OC[C@H]3O[C@@H](n4cnc5c(N)ncnc54)[C@H](O)[C@@H]3O)[C@@H](O)[C@H]2O)C=CC1 [NADH]
reduction of bound flavin, absorbance spectra, anaerobic (DvTR3): DvTR1 and DvTR3 were efficiently reduced by their specific reductants

Compound: NC(=O)C1=CN([C@@H]2O[C@H](COP(=O)(O)OP(=O)(O)OC[C@H]3O[C@@H](n4cnc5c(N)ncnc54)[C@H](OP(=O)(O)O)[C@@H]3O)[C@@H](O)[C@H]2O)C=CC1 [NADPH]
reduction of bound flavin, absorbance spectra, anaerobic (DvTR1): DvTR1 and DvTR3 were efficiently reduced by their specific reductants

Compound: DvTRi, isolated thioredoxin reductase from Desulfovibrio vulgaris Hildenborough (enzyme)
stoichiometry N [1]: 2
